This note sets out measurements from the domain aggregation screens of Martell et al. (2025).
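Note: 20 min heating vs room temperature control held 20 min.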

The series in a line: soluble fraction after stress (log2 fold change); higher = more stays soluble; pooled small domains, quantitative proteomics. The conditions noted are these: stress: 75 degC.
As for “HMNVNTNTILKSLMETYPDSTVFKKAEIVSIANSLGFKKSDYSPLTSTDNRTDVRGQYDLSAVIIPMRESN”, the “soluble fraction (log2)” value is -0.14. To “HMNVPYEMVTQNGEVFYKYKVQPGEGVFAVSRTFSVSVAEILRVNPEANKGLKNGQVLLIPVPKDMIA” belongs -1.71; to “HMNVVGAKGRIIKISSSEEKMAVAEIEGHGEWNIRTNSEIELFVGKSVEVIEMKGNYLLVNQI”, -3.01; to “HMNVWESVDLRQEQHEAKRRLILKQAALLFADRGFHETTIDQIAEALNVTKPTIYYYIESKEDLLYQVA”, -0.135.

With “HMNWQLITDPKELRELVQKTIADNEAGTSRLREGDMGPLEFLTGIIMKKTRGLADPTMVKALLKEELNI”, the “soluble fraction (log2)” value was -0.0208.

With “HMNYEFLEKIGFSSNEAKVYGTLIKHKVLNGYEIAKLSGVARSLVYEVINRLVAKGAVIRIDGEPNFYKP”, the “soluble fraction (log2)” value was -2.2. Regarding “HMNYHDTLSYLMDAFGGADNLQKLLGVGPSALSNYRRREHLPLNQARKLSNIAPEFGFNLDPYTLKISVID”, the “soluble fraction (log2)” value was -1.62. Turning to “HMNYKLESYLKKVDDQLNFIPVSDKADILSELKNTFYERLLNGQTEEEILDEMESPRELALSYMSES”, the “soluble fraction (log2)” value was -0.00676. As for “HMNYTYTVPEGIRYLRADKALALAFPDHSRTALQRAFDSGLVTLRGVAIKRDQSVTALDTLEFAMPDI”, the “soluble fraction (log2)” value is -0.981.

“HMNYVFVLNEHGVRQTSYVVGLHADTLEKTEKLAKQTYPTSTIISGDSEMQSQFISGKAYVNGEFVDP”: the “soluble fraction (log2)” value is -0.713. Take “HMPAFWILAVLAGGRRHGYQIMREAALSSEGLVTLKPTTLYAALERLERDGAIQQDGEEIVDGRVRRYYRI”: the “soluble fraction (log2)” value came out at 0.16. To “HMPAKDAEFTAFVRSATPTLTRTAYLLTGDRETASDLVQEAFVRTYLAWRRVRPEEATAYTRRVLVN” belongs 0.321; to “HMPAPMISIQLNGEPRNVQPGISIAALVREIGLEPAKVAVERNREIVPRSTLGDVLIEAGDQLEIVHFVG”, -0.45.

With “HMPAQPEPYNNLARLYSAQGKLDQAASLLRAGLYTDPAYRALFDNLTRIYAEQAARSLSAALD”, the “soluble fraction (log2)” value was -1.1. With “HMPASDPNEKQILRFLTEHQVITRKETQALLDVSQSTAGRVLKAMVDNGQIKQLGGSRNTRYELPM”, the “soluble fraction (log2)” value was -0.141. With “HMPASGISSEIIYDGILIEENLRQLKKDKAWLMDQLKKKGISSVSEVFLATLNKGGSLYIDKY”, the “soluble fraction (log2)” value is -0.451. Turning to “HMPASVSAIRKYLGGGSFKGVGPALAKRIVDAFGEYTIETIENDPKQLAKVKGVSEKMALEINTQ”, the “soluble fraction (log2)” value was -0.582. The same measure for “HMPAYYQKEAVLDGRASVFAYERDPSSWYFKQLIPGTKKYRTKKIQGATTLEQAKSQALDIALGLRDEP”: -0.0971; for “HMPDDHFIRGYVTAVLEQVLKVPSIQVEVERGVVILRGDLPGEERQELLDAVSRIHGVARVEYIPL”: -0.686; for “HMPDLSGEEQQIVDILAQRGNLQINTLVVETDIPVHKMNAILFELEMKGVVRVLAGGMYQLL”: -1.02.

Turning to “HMPDPLVEIRSAVHSNYAGMIAMLGADNRVYLGREEHYSYQDGQPGQYDNRDGSLLFVSDQPDIYYFL”, the “soluble fraction (log2)” value is -1.17. The same measure for “HMPEAITLRDLKTYSKQAASGYLDDHQLVLVEKEAHSEDVPEGQVIKQKPGAGASVKPGDKVEVTFSLGPE”: 0.0463; for “HMPEKKKYGDFVSMTEEEYGKLVSEYGQEAAKRMVEILNNYKGATGKPYKSDYLAILNWVVKRIKEE”: -0.0863.

In the case of “HMPELFLFNPDTASAATFQALGFSARQAGVLIHFREALGGRFGSVEQFSKSYVVDSATLERLRPYMVF”, the “soluble fraction (log2)” value is -4.13. The same measure for “HMPEMHIYTKEGKIHITHIDENEEIKIYNPLGQIIYTGSPQDIPVLEGKGLYIIYIGKSAVEVLES”: -2.2. The same measure for “HMPENESPEEKHARFRRFAEGLMARLDENESVRDILPELKVWLDDRELDRDDQRLARNLMLTAGKRE”: 0.0151; for “HMPEPLTARETEVLRLLSGGYSNREIAAAMFLAEGTIKNHVSAVLLKLGVRDRTRAVLRGLELGLIQ”: -2.27.

As to “HMPEPPRVGETLAALRQDRALSLDELSRQAGVSKSMLSQIERNQANPTVAVVWRLANALGVPMAELLGA”, the “soluble fraction (log2)” value is -0.272. With “HMPGDIRKAAILLMSLPREQAAQVLARLDPKQVEAVTIEIARLGTVTPDEQEQALKEFSQANPA”, the “soluble fraction (log2)” value came to 0.0238. To “HMPGIDDAAVEHAERVLAQHIGPMARLLVRRTVPRAANLFDLHRRLGALIPESEPRTAFLSAVVT” belongs 0.0954; to “HMPGLSQAEAQSLLIAYLAQQGRTLELIPLGQSGDVWRFSGRESDGTVVSFFMVSRTDGTISEVPVPP”, -1.06; to “HMPGRLSRREVEVIELTARGLPAAEMAVRLGISANTIEFHRRRIMQKLGVANAAEMVRRATELGW”, -2.28.

On to “HMPGRVITVMVNGKRVDLPFREEPYIFVDLFRYMDFDVERARGRIQLAINGKKAGYTDIIREGDSIEI”, for which the “soluble fraction (log2)” value is -2.54.

On to “HMPGTAAQARQLKAWLKENGEKPGAALPALQKAQEIYGYVPREVQQLIADALHKPLTEIYGVSTFYSQFNL”, for which the “soluble fraction (log2)” value is -0.566. In the case of “HMPGTPADQVAELQTKVGTETKTGDMITQDDVKLLQTALDPLAKMNDRIQAAKILESKGIVTSDGNLRT”, the “soluble fraction (log2)” value came to 0.0421. To “HMPIGENIKRLRIMHGLSQKELAQIAGVSDKAVSTWENGTKEPRMGAVQKITGYFGLKKSNLIEDNGL” belongs -0.0452; to “HMPIMDSDDKYEALGIPQEWIAVVKKAGYQTVEALKAVENPNKLHQELSVMNKKEKLGLAGLTPEMVKAWL”, 0.321. As for “HMPINPKVKQIYDTLKDGGADVGSEKEFNDYFFAKGKDGYNNRKEVFNTLREGGADAGKSYEEFAGWLGL”, the “soluble fraction (log2)” value was found to be 0.445.

Turning to “HMPIPIESEISRSPGQSIYAFVQQHYGRSGRSPADMRALVGLILRLNRQIRTPLLIPFGLVVVRPT”, the “soluble fraction (log2)” value stood at 0.335.

Take “HMPIRVGDAFESLAGVFPDEYNKALRKSTKKPVFFVPVKVEAGSGALRQKGKITFIVKDGRIDAIQIAL”: the “soluble fraction (log2)” value was -1.41. To “HMPISQGATVKHNANMRKGASTKYKVTGVLQEGEEVKILSQSNGWYKIQNSDNEKGWTYNTHINASDK” belongs 0.0826; to “HMPKHFIDFSEGEVVSITDGPFKGFDGAISEIDNQKGKVKVMVSMFGRDTSVELDALQVKKV”, 0.00647; to “HMPKITTIHIDPEKISKVIGPGGKTVKKIIEETGAKIDIEDTGKIFIAAVNTEAANKAIDMINGIVA”, 0.101.

In the case of “HMPKLPIIYVLDGHVNKNALTTSGKNKVWIEHELKKHHINSIKDVLIAMTDTEGKFYYQLYD”, the “soluble fraction (log2)” value was -1.77.

“HMPKLSNNHMAVWQAIRSRTAKGEPSTRAVIRDDLKAAGMDTSKHFSRWLTKLIDLGMVVKDGENLSIR”: the “soluble fraction (log2)” value is -0.395. To “HMPKMISPAQIKAIGAKTNNIAKASGVEQAQVYQSAVAHLGINNKSTKELTSQEASKVIEYLSTL” belongs 0.103; to “HMPKPMKATKITLQQEPRIRVDFTYDPLKVQQIKTISGARWSKSLKAWHIPYTKEAFNQLKKLFPNVEIEV”, -1.44; to “HMPKSVRQSFVYSPMYRDVEYLADFLRNNNKDDSSVSASGDKLVYYGTADEIARVKSVLKGVDV”, -0.00252. The same measure for “HMPLIPIAIELARHALPSLIGAIAGDKSEKVAKEVVDAALKTTGKTTPDEALHALQADPQLAHEYRLSLL”: 0.982; for “HMPLKLIDVYLGRHGKKRYDVFKETGLSQQTLASANGKPAAALTGRILQAIGRTVGETPGRVLDEMLMIEQ”: -1.02; for “HMPLLADLPNLLRKVLKQHPGRVVDVDLERGRQGREIYHVRVLQENGQVRGLFVDASTGELVS”: -0.938. Regarding “HMPLQLPEPMAELARNGETARLAEALKQGLDIDLRDGKGNTLLMIAAYQGRAETVAMLLKAGA”, the “soluble fraction (log2)” value is -2.29. As to “HMPLSLESVSEGGRNDTAARIAGYLIAKGLNVDFARFFLQSWNTKNKPPLDDTEIDTIVNSIMKTHERKNQ”, the “soluble fraction (log2)” value was -0.858. To “HMPLTPATADAGRFVKQDRKYIRLLAKRYNFTHGDIKSEIDRVSAVLSSNGIDRVPLFLYKEYLEQYLAG” belongs -2.04; to “HMPLTRSDVKRIQLWLMAHGYDIGSPDGVFGDKSNRAANAFLSQQGRSLETVTLGKLYDILEAN”, -2.58. On to “HMPMINLYQRLNLPPTASRAEIEAALAQYRSELSTAEIRGVQEWLLVNEVRHRYDAKLRQEQPSFFI”, for which the “soluble fraction (log2)” value was -1.08. To “HMPMTLGENIARLRTQKDWSQGDLADALGISRQSISKWETDTSIPELEKLIKLSELFGVTLDQLVRGE” belongs -0.406. Consider “HMPNILLSVKDASVAISVSSKMVRLLIASGRLKAVNLGKRMTRISLQELTDFAQRQGGNVVLP”, for which the “soluble fraction (log2)” value is -0.123. Regarding “HMPNLAAAIGARVTIRLREASGGFRDIVGTLQRFGDGVNELLNSKGQIISFSEDEIAIWREIK”, the “soluble fraction (log2)” value was -3.33.

In the case of “HMPNQIKQIAVNTASVSDIATIPGISFDFAKEIWEFRILRQKIGSLSELQKIEGMTASKYALIELYLHI”, the “soluble fraction (log2)” value was -3.71. To “HMPNSIKAPAYLHNIARIYDHVLIDVEKASSAYEKLIKKYPNHPLSINAKLYLENAFNRSDEELLNMIKEN” belongs -0.892.

On to “HMPNYVEMLRLHEAGFSLRQIAKLVSSGRNTVTRTVNIAQEKELSYEEIAQWSSEELENMFKPD”, for which the “soluble fraction (log2)” value was -2.25.

In the case of “HMPPDIKVVGVTVASDPRASFAMLSSNGKTLSYRVNDLIEGTEYHLIKVEAAAITIATAGGQSTQIAF”, the “soluble fraction (log2)” value is -2.54.

Regarding “HMPPFTYHLERAKRKTVGFIVDERGVTVRAPRWVSVSEIEKMLQTKEAWIQKKLTEFHNWQKE”, the “soluble fraction (log2)” value is -3.39. Take “HMPPHGHIVELLPEQDFGRIETGDGRLVYFHRNSVLDGDFAQLAVGDAVRFAEEMGERGPQASSVHVE”: the “soluble fraction (log2)” value was 0.0508. The same measure for “HMPPLKYLKVKSYLEAVAVKAESAMRMPTVRELMNQFNVSLATVNRALSELENDGVIVRRQGSGIVAAG”: -0.00508.

Regarding “HMPPSGPWEQDPPSEAQLKPFNEAMKRTADIDVDLYEKAKKALNDGTITKGNIYDWINREDSPWVLQDGS”, the “soluble fraction (log2)” value turned out to be 0.241. With “HMPPSQRVNRILSLAGITSRRKADEYILEGRVTVNGEVLKEPGAKAVWGTDDIRVDGKPIPALS”, the “soluble fraction (log2)” value worked out at 0.0835. As to “HMPPSVAETLKRLRRHKSLSLEELAQMSGVSRSMLSQIERDATNPTVATLWRITAALGVSIDEVLGV”, the “soluble fraction (log2)” value was -2.43. To “HMPPTEQVYRSHVPPQYDGFPIEKYFTTRFSYQDVEEWSRQILAGKIEVNGKTALIGQILSASDLTVTRA” belongs -0.895.
